Test results from article PMC4562626.

Experiment: TIRF total EGFP fluorescence in adhered membrane
Conditions: glycan lost; control: wild type Kv1.1-EGFP

B1: Kv1.1: N207Q (protein)
parent chain: MTVMSGENADEASAAPGHPQDGSYPRQADHDDHECCERVVINISGLRFETQLKTLAQFPNTLLGNPKKRMRYFDPLRNEYFFDRNRPSFDAILYYYQSGGRLRRPVNVPLDMFSEEIKFYELGEEAMEKFREDEGFIKEEERPLPEKEYQRQVWLLFEYPESSGPARVIAIVSVMVILISIVIFCLETLPELKDDKDFTGTIHRIDNTTVIYTSNIFTDPFFIVETLCIIWFSFELVVRFFACPSKTDFFKNIMNFIDIVAIIPYFITLGTEIAEQEGNQKGEQATSLAILRVIRLVRVFRIFKLSRHSKGLQILGQTLKASMRELGLLIFFLFIGVILFSSAVYFAEAEEAESHFSSIPDAFWWAVVSMTTVGYGDMYPVTIGGKIVGSLCAIAGVLTIALPVPVIVSNFNYFYHRETEGEEQAQLLHVSSPNLASDSDLSRRSSSTISKSEYMEIEEDMNNSIAHYRQANIRTGNCTATDQNCVNKSKLLTDV
In the case of B1, the expression_or_secretion is reported as “no change”.
